{
  "source": "patent US20260125649A1",
  "about": "“MEDIUM COMPOSITION AND METHOD FOR CULTURING MESENCHYMAL STEM CELLS” (ACADEMIA SINICA, priority 2018, published 2026)",
  "assay_type_in_all_cases": "cell-based, human",
  "key": {"[1]": {"tested_on": "HMGA2 binding to the promoters of Oct4 and Sox2", "test": "ChIP of HMGA2 binding to promoters of pluripotency genes", "conditions": "EpEX treatment, data not shown", "procedure": "(§1) MSCs were treated with EpEX (3 μg/mL), and the expression of HMGA2 was detected by immunofluorescence staining. […] To detect the binding of HMGA2 to Oct4 promoters, cross-linked DNA was isolated and then amplified with specific primers by qPCR. […] The gene expression of HMGA2 is detected by qPCR. MSCs were treated with let-7 mimetic and then treated with EpEX (3 μg/mL) for 12 h. The protein abundance of HMGA2 was examined by Western blotting.\nWe performed chromatin immunoprecipitation (ChIP) with the Pierce™ Magnetic ChIP Kit (Thermo Fisher Scientific), to according the manufacturer's instructions. In brief, the protein-DNA complexes were cross-linked with 1% formaldehyde and quenched by adding glycine to a final concentration of 200 mM. The chromatin complexes were sonicated to an average size of 250 bp by a MISONIX Sonicator 3000. For immunoprecipitation, 4 μg of […] (Novus) was incubated with protein G beads (Invitrogen) for 4 h. The immunocomplexes were further incubated with chromatin for another 4 h. […]\nThe immunoprecipitated DNA was recovered by a PCR purification kit (Thermo Fisher Scientific), and the purified DNA was subjected to real time quantitative PCR for further analysis. Immunoprecipitation/input was calculated for each gene and each gene was further normalized to the level of mouse β-actin promoter. […]"}, "[2]": {"tested_on": "HMGA2", "test": "HMGA2 expression and nuclear translocation (Western blotting, immunofluorescence, qPCR)", "conditions": "EpEX 3 μg/mL", "procedure": "as §1\n(§2) Total RNA was extracted using TRI reagent (Invitrogen, CA, USA), and 5 μg of total RNA was reverse transcribed using oligo (dT) primer (Fermentas, Glen Burnie, MD, USA) with SuperScript III reverse transcriptase (Invitrogen). Quantitative real time RT-PCR (qPCR) was performed on cDNA using the Light Cycler 480 SYBR Green I Master kit (Roche Applied Science, Indianapolis, IN) and the LightCycler480 System (Roche Applied Science). The gene expression levels of each sample were normalized to the expression levels of glyceraldehyde 3-phosphate dehydrogenase (GAPDH).\nWestern blotting was performed as previously described (Takahashi et al., 2003). Cells were lysed in lysis buffer (150 mM NaCl, 50 mM Tris-HCl (pH 7.4), 1% Nonidet P-40), containing a protease inhibitor mix (Roche Applied Science). […]"}, "[3]": {"tested_on": "let-7", "test": "let-7 expression by qPCR", "conditions": "EpEX 3 μg/mL", "description": "The expression of let-7 was detected by qPCR. MSCs expressing EGFR shRNA, STAT3 shRNA or Lin28b shRNA were stimulated with EpEX. The expression of let-7 was detected by qPCR. […] Expression of pluripotency factors (Oct4, Sox2, c-Myc and Lin28) was examined by qPCR. MSCs were transfected with a let-7 mimetic, and then stimulated with EpEX. Protein levels of pluripotency factors (Oct4, Sox2, c-Myc, and Lin28) were examined by Western blotting.\nas §2"}},
  "data": [
    {"molecule": "EpEX: extracellular domain of human EpCAM, 265 amino acids in length (SEQ ID NO: 2) (protein, listed as Homo sapiens) MAPPQVLAFGLLLAAATATFAAAQEECVCENYKLAVNCFVNNNRQCQCTSVGAQNTVICSKLAAKCLVMKAEMNGSKLGRRAKPEGALQNNDGLYDPDCDESGLFKAKQCNGTSMCWCVNTAGVRRTDKDTEITCSERVRTYWIIIELKHKAREKPYDSKSLRTALQKEITTRYQLDPKFITSILYENNVITIDLVQNSSQKTQNDVDIADVAYYFEKDVKGESLFHSKKMDLTVNGEQLDLDPGQTLIYYVDEKAPEFSMQGLK", "values": [
      {"measurement": "HMGA2 binding to the promoters of Oct4 and Sox2", "setting": "[1]", "result": "can induce"},
      {"measurement": "level of HMGA2", "setting": "[2]", "result": "induced"},
      {"measurement": "HMGA2 nuclear translocation", "setting": "[2]; Western blotting and immunofluorescent staining", "result": "induced"},
      {"measurement": "level of let-7", "setting": "[3]", "result": "decreased"}
    ]}
  ]
}
